Patent US20220275088A1

Experiments:
[1] = target: human PD-1 on cells (transfected Expi293 cells, PHA-cultured T cells, cells of the Promega PD1-PDL1 bioassay, T cells of the MLR) (human) (UniProt Q15116); assay: cell-based or functional assay
[2] = target: soluble PD-1 (biotinylated PD-1; expi293 expressed soluble PD1-avi) (human) (UniProt Q15116); assay: method not named at the list; Octet (BLI) on biotinylated PD-1 by context
[3] = target: soluble PD-1 (biotinylated PD-1; expi293 expressed soluble PD1-avi) (human) (UniProt Q15116); assay: Octet (BLI)

Sequence of soluble PD-1 (biotinylated PD-1; expi293 expressed soluble PD1-avi) (human) (Q15116 25-170): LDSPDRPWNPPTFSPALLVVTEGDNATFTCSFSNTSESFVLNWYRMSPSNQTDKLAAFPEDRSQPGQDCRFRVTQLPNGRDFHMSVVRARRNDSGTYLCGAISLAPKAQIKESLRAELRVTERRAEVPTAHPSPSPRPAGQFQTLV
Sequence of human PD-1 on cells (transfected Expi293 cells, PHA-cultured T cells, cells of the Promega PD1-PDL1 bioassay, T cells of the MLR) (human) (Q15116 25-288): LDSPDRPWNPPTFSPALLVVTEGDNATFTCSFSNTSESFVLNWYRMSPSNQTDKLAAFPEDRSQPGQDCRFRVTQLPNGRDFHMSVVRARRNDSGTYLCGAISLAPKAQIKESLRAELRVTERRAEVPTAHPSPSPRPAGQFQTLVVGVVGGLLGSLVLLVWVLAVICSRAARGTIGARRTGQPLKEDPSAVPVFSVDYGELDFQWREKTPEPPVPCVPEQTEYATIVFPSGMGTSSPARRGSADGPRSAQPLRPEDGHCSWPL

Row | EC50 against Nivo, Promega PD1-PDL1 bioassay (fold of the EC50 of Nivo) [1] | Kd [2] [nM] | Kd [3] [nM] | koff [3] [s⁻¹] | kon [3] [M⁻¹ s⁻¹] | Binder
1 | 1.75 | 1 |  |  |  | P4-B3 minibody (scFv-Fc) (Fc fusion, part only; not given: Hinge, Fc, domain order, not shown: another chain or arm of the molecule; a dimerising Fc or GST; small tags and cut ends) VH: QVQLVQSGGGLVQPGRSLRLSCAASGFTFDDYAMHWVRQAPGKGLEWVSGISWNSGSIGYADSVKGRFTVSRDNAKNSLYLQMNSLRAEDTAVYYCASDYGDKYYYYGMDVWGKGTTVTVSS VL: QPGLTQPPSASGTPGQRVTISCSGSSSNIGSNTVNWYQQFPGKAPKLLIFNDNQRPSGVPDRFSASKSGTSASLAISGLQSEDEADYYCAAWDGGLNGRGVFGGGTKLTVL
2 |  |  | 0.94 | 6.45e-05 | 68500 | P4-B3 scFv (scFv, part only; not given: Linker, domain order, tag, V domains shown, not shown: another chain or arm of the molecule; small tags and cut ends) VH: QVQLVQSGGGLVQPGRSLRLSCAASGFTFDDYAMHWVRQAPGKGLEWVSGISWNSGSIGYADSVKGRFTVSRDNAKNSLYLQMNSLRAEDTAVYYCASDYGDKYYYYGMDVWGKGTTVTVSS VL: QPGLTQPPSASGTPGQRVTISCSGSSSNIGSNTVNWYQQFPGKAPKLLIFNDNQRPSGVPDRFSASKSGTSASLAISGLQSEDEADYYCAAWDGGLNGRGVFGGGTKLTVL
